According to US20100135987A1:
Several values for one entry are separate records, joined by “and”; a condition that tells them apart may be missing. Equal entries are not always repeated.

Experiments:
[1] = target: Protein A (ligand of MabSelect resin, GE Healthcare) (UniProt P38507); experiment: dynamic binding capacity of MabSelect column at 5% breakthrough, load at 300 cm/hr, average of Exp. 1 and 2
[2] = target: Protein A (ligand of MabSelect resin, GE Healthcare) (UniProt P38507); experiment: dynamic binding capacity of MabSelect column at 5% breakthrough, load at 300 cm/hr
[3] = target: Protein A (ligand of MabSelect resin, GE Healthcare) (UniProt P38507); experiment: dynamic binding capacity of MabSelect column at 5% breakthrough, 300 cm/hr to 35 mg Ab/mL resin, then 150 cm/hr
[4] = target: Protein A (ligand of MabSelect resin, GE Healthcare) (UniProt P38507); experiment: dynamic binding capacity of MabSelect column at 5% breakthrough, dual-flow rate load, average of Exp. 3 and 4

Question: anti-IL-12 antibody (ABT-874) was tested. Which DBC at 5% BT (mg Ab/mL resin) [1] did it give?
Answer: 44.3

Question: And the DBC at 5% BT (mg Ab/mL resin) [2]?
Answer: 43.7 and 44.9

Question: What about the DBC at 5% BT (mg Ab/mL resin) [3] of the same substance?
Answer: 51.6 and 51.7

Question: What about the DBC at 5% BT (mg Ab/mL resin) [4] of the same substance?
Answer: 51.7
